Measurements as given in paper PMC314469, “Protein Interaction Networks by Proteome Peptide Scanning” (PLoS Biology, 2004).

T1: amphyphisin SH3 (AMPH_HUMAN), P49418
T1 chain: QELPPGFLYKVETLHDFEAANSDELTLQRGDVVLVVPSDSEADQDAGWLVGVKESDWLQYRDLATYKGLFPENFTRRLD


What was measured:
[1] = molecular target: endophilin SH3 (SH3G2_HUMAN), Q99962; assay: SPOT array
[2] = molecular target: T1, amphyphisin SH3 (AMPH_HUMAN), P49418; assay: SPOT array

normalised SPOT signal, Boehringer light units (BLU); mean over the file's lines of this peptide [1] | normalised SPOT signal, Boehringer light units (BLU); mean over the file's lines of this peptide [2] | Binder
73.8 | 25.7 | ARPELRRPGVQGIP [Q9Y358 352-365]
63.8 | 71.4 | PEAVPGKPPFAEPD [Q9BYN7 703-717]
98.4 | 2010 | PASAFDRPARTRGQ [Q9H7P7 809-822]
45.8 | 56.7 | PARPPAKPPEDEPD [Q14184 101-115]
28.3 | 29.4 | PAQLPRRPAQRPGE [O00456 575-588]
281 | 124 | PESEIERPERLTAA [Q9UGX2 21-34]
181 | 1040 | PSKEILRPRRTLQK [P01031 668-681]
1390 | 869 | PSLTPRRPSSTRAR [Q16623 232-245]
509 | 92 | PAVPPARPPTAQEV [Q9ULT2 697-711]
310 | 986 | PDPGFLRPQRAALY [Q9UGB8 1078-1091]
238 | 24.8 | PEYRPKRPANQFVP [P13862 172-185]
152 | 35.6 | PEVQLRRPNWSKLV [O60610 754-767]
27.2 | 70.5 | PAPRIKRPRLQVVK [Q9BR83 136-149]
92.9 | 4470 | PASALPRPPRLSGS [Q9NQ45 25-38]
136 | 92.1 | ARRPLARPIKPNEI [O94825 179-192]
78.4 | 38.3 | PSAKPRRPQDKSQG [Q9P2D1 825-838]
2400 | 4730 | PEVGPWRPKRLSGV [Q9NPU4 88-101]
231 | 121 | ARRGPGRPRKRKHS [Q9P281 735-748]
6240 | 635 | PDIPPPRPPKPHPA [Q13480 337-351]
28.5 | 33 | PEVYLKRPAHSDDW [O14939 368-381]
95.5 | 32.1 | PEIFLKRPVVEGNR [Q13393 385-398]

normalised SPOT signal, Boehringer light units (BLU); mean over the file's lines of this peptide [1] | normalised SPOT signal, Boehringer light units (BLU); mean over the file's lines of this peptide [2] | Binder
426 | 412 | PSYHILRPSRNQDL [Q9BR43 91-104]
23.2 | 19.3 | PEDAPKRPKEAAPD [Q9NUE8 153-166]
67.8 | 510 | PFGQLKRPRRNGLG [Q9NUE2 170-183]
62.3 | 24.4 | PDQGPQRPPPEGLL [Q16378 41-55]
7480 | 2070 | PAVPPGRPRRGSLP [Q9UQ51 6-19]
143 | 152 | PAPSLPRPERKSIV [Q99941 295-308]
260 | 39.7 | PSSRPRRPAVYTSV [Q9UKQ9 224-237]
3.6 | 18 | AARGLRRPEDSSRK [Q9H5N7 170-183]
242 | 60.1 | PDVWLRRPSTHTSG [Q9C0C1 1172-1185]
2140 | 309 | PSTLPRRPPVPSGQ [Q9Y215 243-257]
108 | 16.5 | PAVILRRPNQSQPL [Q92542 409-422]
116 | 98.6 | PEPELSRPIRHHPD [Q01459 44-57]
12.2 | 24.5 | PDETLRRPGGPQYG [Q14289 406-419]
3100 | 2020 | PSPAPPRPARVPAH [Q13078 876-889]
3080 | 215 | PFFAPKRPFFPPRY [O75048 890-903]
1370 | 548 | PDHRPPRPPQPPPP [P51511 326-340]
106 | 1020 | PERLLLRPARIRAD [Q9BXY2 295-308]
7710 | 11300 | PATAPARPLRLPSG [Q9UPV8 1233-1246]
52.2 | 35.9 | PDPAIRRPAEKFLE [P55060 21-34]
71.1 | 71.5 | PAPRLRRPGRVRPH [Q8WZ58 338-351]
67.4 | 1340 | ARRLLVRPARLRRH [Q9UIC6 53-66]
